Data taken from PMC12634842.

Target: Cys151 (UniProt position 151, SMGEKCVLHVM)
Experiment: chemical modification (fluorescence detection)
Settings: 25 °C; 15 mM acetate/15 mM MES/30 mM Tris; Reduced (DTT-treated, desalted) free BTB domain, folded, no ligand

Work on “Kelch-like ECH-associated protein 1 (KEAP1), BTB domain (Homo sapiens; S172A)” yielded a pKa of 6.90 ± 0.05.
